For data set [1], the target named is T1, human neutrophil elastase (Homo sapiens, UniProt P08246).
T1 sequence (P08246 30-247 limits assumed): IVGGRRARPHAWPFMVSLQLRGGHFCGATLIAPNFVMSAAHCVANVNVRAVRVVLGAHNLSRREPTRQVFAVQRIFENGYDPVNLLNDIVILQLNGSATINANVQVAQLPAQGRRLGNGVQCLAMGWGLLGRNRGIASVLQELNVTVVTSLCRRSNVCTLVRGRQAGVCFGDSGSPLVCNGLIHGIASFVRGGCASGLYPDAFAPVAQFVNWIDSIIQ
The data set can be described thus: Peptide stability to neutrophil elastase (RP HPLC ESI MS). The note with it: halftime with human neutrophil elastase 1 to 2 μg/mL in PBS, ambient temperature, normalized to halftime of the reference standard.

The test system of data set [2] is methacholine-induced bronchospasm in mice. Nature of the data set: Methacholine-induced bronchospasm in mice (whole body plethysmography, Penh). It counts as in vivo. Particulars: balb/c mice; drug by aerosol for 20 minutes before spasmogen challenge; relative to vehicle. The protocol: Respiratory function is measured in conscious, freely moving mice using whole body plethysmographs (WBP) from BUXCO Electronics, Inc. (Troy, N.Y.). WBP chambers allow animals to move freely within the chamber while respiratory function is measured. Eight chambers are used simultaneously so that eight mice can be measured at the same time. Each WBP chamber is connected to a bias flow regulator to supply a smooth, constant flow of fresh air during testing. A transducer attached to each chamber detects pressure changes that occur as the animal breathes. Pressure signals are amplified by a MAX II Strain Gauge preamplifier and analyzed by the Biosystem XA software supplied with the system (BUXCO Electronics, Inc.). Pressure changes within each chamber are calibrated prior to testing by injecting exactly 1 ml of air through the injection port and adjusting the computer signal accordingly. Mice are placed in the WBP chambers and allowed to acclimate for 10 minutes prior to testing. Testing is conducted by letting the animals move and breathe freely for 15 minutes while the following parameters are measured: Tidal Volume (ml), Respiratory Rate (breaths per minutes), Minute Volume (tidal volume multiplied by respiratory rate, ml/min), Inspiratory Time (sec), Expiratory Time (sec), Peak Inspiratory Flow (ml/sec), and Peak Expiratory Flow (ml/sec). Raw data for each of the parameters listed above are captured in the software database and averaged once per minute to give a total of 15 data points per parameter. The average of the 15 data points is reported. Accumulated Volume (ml) is a cumulative value (not averaged) and represents the sum of all tidal volumes for the 15-minute test session. The protocol is customized to include measurements before, during, and after a spasmogen challenge to determine Penh. Dose-response effects of a particular spasmogen (i.e. methacholine (MCh), acetylcholine, etc.) are obtained by giving nebulized aerosol (30-60 sec exposure) at approximately 5-10 min intervals. Mice (balb/c) are treated with vehicle (2% DMSO in H2O) or drug dissolved in 4 ml vehicle for 20 minutes by aerosol, as described above, prior to spasmogen challenge. Penh is determined at 5, 30 and 60 minutes post-challenge. Data are reported as percent inhibition of Penh relative to vehicle.

Data set [3] addresses T2, VPAC2 receptor (Homo sapiens, UniProt P41587).
T2 construct: The human T-lymphoid cell line Sup-Ti, which expresses the VPAC2 receptor; host or cells: Sup-T1 (Sup-Ti [sic]) human T-lymphoid cell line
T2 sequence (P41587 24-438): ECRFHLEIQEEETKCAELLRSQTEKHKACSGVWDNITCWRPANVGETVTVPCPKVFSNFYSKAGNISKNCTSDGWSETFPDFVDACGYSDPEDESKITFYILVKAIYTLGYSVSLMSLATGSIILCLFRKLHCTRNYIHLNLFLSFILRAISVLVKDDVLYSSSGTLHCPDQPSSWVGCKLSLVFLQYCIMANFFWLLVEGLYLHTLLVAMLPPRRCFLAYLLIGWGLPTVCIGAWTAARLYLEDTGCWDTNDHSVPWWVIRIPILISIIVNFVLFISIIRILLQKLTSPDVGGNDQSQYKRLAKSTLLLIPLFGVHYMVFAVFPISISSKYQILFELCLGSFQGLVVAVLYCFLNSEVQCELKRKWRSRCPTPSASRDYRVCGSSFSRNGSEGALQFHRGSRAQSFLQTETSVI
Nature of the data set: Sup-T1 cAMP agonist assay. It counts as cell-based. Particulars: human T-lymphoid cell line Sup-T1 expressing VPAC2 receptor; cAMP EIA; 5 min at room temperature; read-out: Sup-T1 cAMP EC50. The method, boiled down:
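Sup-T1 human T-lymphoid cells with endogenous VPAC2 (RPMI 1640, 25 mM HEPES, 10% FBS) were plated at 4×10^4 cells/well and exposed to compound for 5 min at room temperature. After lysis, cAMP was measured by enzyme immunoassay. EC50 came from a sigmoidal fit of 7-concentration dose-response data.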

In data set [4] the target is T3, VPAC2 receptor (human, UniProt P41587).
T3 sequence: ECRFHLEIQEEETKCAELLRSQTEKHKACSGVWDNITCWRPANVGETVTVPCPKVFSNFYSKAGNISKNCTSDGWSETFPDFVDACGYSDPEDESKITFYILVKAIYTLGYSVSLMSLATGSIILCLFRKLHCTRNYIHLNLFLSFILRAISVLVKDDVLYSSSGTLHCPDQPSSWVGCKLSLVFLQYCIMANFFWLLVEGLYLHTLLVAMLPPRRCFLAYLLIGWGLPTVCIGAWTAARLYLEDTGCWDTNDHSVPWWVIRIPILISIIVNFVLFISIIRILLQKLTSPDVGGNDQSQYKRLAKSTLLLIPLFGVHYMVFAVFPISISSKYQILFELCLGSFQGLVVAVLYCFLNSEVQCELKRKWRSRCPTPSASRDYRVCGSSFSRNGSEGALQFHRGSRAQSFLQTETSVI
The data set can be described thus: cell-based or functional assay.

As usually defined, the EC50 is the concentration at which the effect is half-maximal.

Bridge positions count the residues as written; N and C are the ends. Square brackets hold non-standard residues; d marks the D form. Peptide text beside a SMILES is read from it. ξ: configuration not given here. Thr(3ξ) = CC(O)[C@H](N)C(=O)O; αMeV = CC(C)[C@](C)(N)C(=O)O; Nle = CCCC[C@H](N)C(=O)O

`CCCC[C@H](NC(=O)[C@H](CCCNC(=N)N)NC(=O)[C@H](CCCCN)NC(=O)[C@H](CCCNC(=N)N)NC(=O)[C@H](CC(C)C)NC(=O)[C@H](CCCCN)NC(=O)[C@@H](NC(=O)[C@H](Cc1ccc(O)cc1)NC(=O)[C@H](CC(N)=O)NC(=O)[C@H](CCC(=O)O)NC(=O)[C@@H](NC(=O)[C@H](Cc1ccccc1)NC(=O)[C@H](CO)NC(=O)[C@H](C)NC(=O)[C@H](CC(=O)O)NC(=O)[C@H](C)NC(=O)[C@H](Cc1c[nH]cn1)NC(C)=O)C(C)O)C(C)O)C(=O)N[C@@H](CCCCN)C(=O)N[C@@H](C)C(=O)N[C@@H](CCCCN)C(=O)N[C@H]1CCCCNC(=O)C[C@@H](C(=O)N[C@@H](CC(C)C)C(=O)N[C@@H](CCCCN)C(=O)N[C@@H](CCCCN)C(=O)NCC(=O)NCC(=O)N[C@H](C(N)=O)C(C)O)NC(=O)[C@H](CC(N)=O)NC(=O)[C@H](CC(C)C)NC(=O)[C@H](Cc2ccc(O)cc2)NC1=O` (stereo partly shown) [Example 18] (Ac-HADASF[Thr(3ξ)]ENY[Thr(3ξ)]KLRKR[Nle]KAKKYLNDLKKGG[Thr(3ξ)]-NH2; lactam 21-25) had a Relative elastase stability in data set [1] of 5.1. For the same molecule, in data set [2], the “Inhibition of Penh at 5 minutes post-challenge” value is given as “+ (+ >50%)”. In addition, on VPAC2 receptor [3], the EC50 is 276 nM.

B1: Ac-His-Ala-Asp-Ala-MeVal-Phe-Thr-Glu-Asn-Tyr-Thr-Lys-Leu-Arg-Lys-Gln-Nle-Ala-Ala-Lys-Lys-Tyr-Leu-Asn-Asp-Leu-Leu-Lys-Gly-Gly-Thr-NH2 (peptide)
peptide: Ac-HADA[αMeV]FTENYTKLRKQ[Nle]AAKKYLNDLLKGGT-NH2
modifications: lactam 21-25
SMILES: CCCC[C@H](NC(=O)[C@H](CCC(N)=O)NC(=O)[C@H](CCCCN)NC(=O)[C@H](CCCNC(=N)N)NC(=O)[C@H](CC(C)C)NC(=O)[C@H](CCCCN)NC(=O)[C@@H](NC(=O)[C@H](Cc1ccc(O)cc1)NC(=O)[C@H](CC(N)=O)NC(=O)[C@H](CCC(=O)O)NC(=O)[C@@H](NC(=O)[C@H](Cc1ccccc1)NC(=O)[C@@](C)(NC(=O)[C@H](C)NC(=O)[C@H](CC(=O)O)NC(=O)[C@H](C)NC(=O)[C@H](Cc1c[nH]cn1)NC(C)=O)C(C)C)[C@@H](C)O)[C@@H](C)O)C(=O)N[C@@H](C)C(=O)N[C@@H](C)C(=O)N[C@@H](CCCCN)C(=O)N[C@H]1CCCCNC(=O)C[C@@H](C(=O)N[C@@H](CC(C)C)C(=O)N[C@@H](CC(C)C)C(=O)N[C@@H](CCCCN)C(=O)NCC(=O)NCC(=O)N[C@H](C(N)=O)[C@@H](C)O)NC(=O)[C@H](CC(N)=O)NC(=O)[C@H](CC(C)C)NC(=O)[C@H](Cc2ccc(O)cc2)NC1=O
On to B1, for which the “Sup-T1 cAMP EC50” value with VPAC2 receptor [4] was 4.07 nM.

B2: Ac-His-Ser-Asp-Ala-MeVal-Phe-Thr-Glu-Asn-Tyr-thr-Lys-Leu-Arg-Lys-Gln-Nle-Ala-Ala-Lys-Lys-Tyr-Leu-Asn-Asp-Leu-Leu-Lys-Gly-Gly-Thr-NH2 (peptide)
peptide: Ac-HSDA[αMeV]FTENYTKLRKQ[Nle]AAKKYLNDLLKGGT-NH2
modifications: lactam 21-25; not fully specified (residue 11); printed as Ac-His-Ser-Asp-Ala-MeVal-Phe-Thr-Glu-Asn-Tyr-thr-Lys-Leu-Arg-Lys-Gln-Nle-Ala-Ala-Lys-Lys-Tyr-Leu-Asn-Asp-Leu-Leu-Lys-Gly-Gly-Thr-NH2
For the molecule B2, the “Sup-T1 cAMP EC50” value with VPAC2 receptor [4] turned out to be 9.45 nM.

B3: Ac-His-Ser-Asp-Ala-MeVal-Phe-Thr-Glu-Asn-Tyr-Thr-Lys-Leu-Arg-Lys-Arg-Nle-Ala-Ala-Lys-Lys-Tyr-Leu-Asn-Asp-Leu-Lys-Lys-Gly-Gly-Thr-NH2 (peptide)
peptide: Ac-HSDA[αMeV]FTENYTKLRKR[Nle]AAKKYLNDLKKGGT-NH2
modifications: lactam 21-25
SMILES: CCCC[C@H](NC(=O)[C@H](CCCNC(=N)N)NC(=O)[C@H](CCCCN)NC(=O)[C@H](CCCNC(=N)N)NC(=O)[C@H](CC(C)C)NC(=O)[C@H](CCCCN)NC(=O)[C@@H](NC(=O)[C@H](Cc1ccc(O)cc1)NC(=O)[C@H](CC(N)=O)NC(=O)[C@H](CCC(=O)O)NC(=O)[C@@H](NC(=O)[C@H](Cc1ccccc1)NC(=O)[C@@](C)(NC(=O)[C@H](C)NC(=O)[C@H](CC(=O)O)NC(=O)[C@H](CO)NC(=O)[C@H](Cc1c[nH]cn1)NC(C)=O)C(C)C)[C@@H](C)O)[C@@H](C)O)C(=O)N[C@@H](C)C(=O)N[C@@H](C)C(=O)N[C@@H](CCCCN)C(=O)N[C@H]1CCCCNC(=O)C[C@@H](C(=O)N[C@@H](CC(C)C)C(=O)N[C@@H](CCCCN)C(=O)N[C@@H](CCCCN)C(=O)NCC(=O)NCC(=O)N[C@H](C(N)=O)[C@@H](C)O)NC(=O)[C@H](CC(N)=O)NC(=O)[C@H](CC(C)C)NC(=O)[C@H](Cc2ccc(O)cc2)NC1=O
In the case of B3, the “Sup-T1 cAMP EC50” value with VPAC2 receptor [4] was determined as 10.5 nM.

B4: Ac-His-Ala-Asp-Ala-MeVal-Phe-Thr-Glu-Asn-Tyr-Thr-Lys-Leu-Arg-Lys-Gln-Nle-Ala-Ala-Lys-Lys-Tyr-Leu-Asn-Asp-Leu-Lys-Lys-Gly-Gly-Thr-NH2 (peptide)
peptide: Ac-HADA[αMeV]FTENYTKLRKQ[Nle]AAKKYLNDLKKGGT-NH2
modifications: lactam 21-25
SMILES: CCCC[C@H](NC(=O)[C@H](CCC(N)=O)NC(=O)[C@H](CCCCN)NC(=O)[C@H](CCCNC(=N)N)NC(=O)[C@H](CC(C)C)NC(=O)[C@H](CCCCN)NC(=O)[C@@H](NC(=O)[C@H](Cc1ccc(O)cc1)NC(=O)[C@H](CC(N)=O)NC(=O)[C@H](CCC(=O)O)NC(=O)[C@@H](NC(=O)[C@H](Cc1ccccc1)NC(=O)[C@@](C)(NC(=O)[C@H](C)NC(=O)[C@H](CC(=O)O)NC(=O)[C@H](C)NC(=O)[C@H](Cc1c[nH]cn1)NC(C)=O)C(C)C)[C@@H](C)O)[C@@H](C)O)C(=O)N[C@@H](C)C(=O)N[C@@H](C)C(=O)N[C@@H](CCCCN)C(=O)N[C@H]1CCCCNC(=O)C[C@@H](C(=O)N[C@@H](CC(C)C)C(=O)N[C@@H](CCCCN)C(=O)N[C@@H](CCCCN)C(=O)NCC(=O)NCC(=O)N[C@H](C(N)=O)[C@@H](C)O)NC(=O)[C@H](CC(N)=O)NC(=O)[C@H](CC(C)C)NC(=O)[C@H](Cc2ccc(O)cc2)NC1=O
For the molecule B4, in the data set with VPAC2 receptor [4], the “Sup-T1 cAMP EC50” value is 4.75 nM.
